Patent US20220251202A1 (ASHER BIOTHERAPEUTICS, published 2022)
Residue numbers refer to the chain shown, from its start.

B1: xmCD8ab2 (published clone YTS156.7.7) (antibody, V domains shown)
VH: EVKLQESGPSLVQPSQTLSLTCSVSGFSLISDSVHWVRQPPGKGLEWMGGIWADGSTDYNSALKSRLSISRDTSKSQGFLKMNSLQTDDTAIYFCTSNRESYYFDYWGQGTMVTVSS
VL: DIQMTQSPASLSASLGDKVTITCQASQNIDKYIAWYQQKPGKAPRQLIHYTSTLVSGTPSRFSGSGSGRDYSFSISSVESEDIASYYCLQYDTLYTFGAGTKLELK
notes: Carries a human Fc; also called xCD8ab2
B2: xmCD8ab2.1 (antibody, V domains shown)
VH: B1 VH with N98A
VL: B1 VL with D92A
notes: Carries a human Fc; also called xCD8ab2.1

Target: T1, mouse CD8 (on mouse CD8+ T cells) (mouse, UniProt P01731 28-247; P10300 22-213)
T1 construct: whole, on cells
Experiment: flow cytometry on mouse splenocytes, anti-hFc MFI
Description: Fresh splenocytes were incubated with the indicated antibodies for 2 hours at 4° C. The cells were then stained with antibodies against CD3, CD4, CD8 and anti-hFc. anti-hFc was used to measure the binding of CD8-IL2 fusion containing hFc. Cells were washed and analyzed by flow cytometry.
The binding affinity of anti-mouse CD8 antibodies was determined through flow cytometry analysis. […] The xCD8ab2.1 clone is derived from xCD8ab2 by introduction of mutations N95A (VH) and D92A (VK). After incubation with the anti-mouse CD8 antibody, the cells were then stained with antibodies against CD3, CD4, CD8 and anti-hFc (HP6017, Biolegend), the latter of which was used to measure the binding of CD8-IL2 fusion containing hFc. Stained cells were washed and analyzed by flow cytometry and mean fluorescence intensity (MFI) of staining with anti-hFc was used to denote binding.

Binder | binding result
B1 | binds
B2 | binds
